Source: paper PMC4092090, “Investigation of a MMP-2 Activity-Dependent Anchoring Probe for Nuclear Imaging of Cancer” (PLoS ONE, 2014)
Like-named read-outs stand apart in the source and are kept apart here.

Assays:
[1] = Effective dose estimation (OLINDA); settings: estimated from mouse biodistribution data (non-decay-corrected time radioactivity curves) with OLINDA
Description: The effective dose of MDAP3000 was estimated using the area under the non-decay-corrected time radioactivity curves generated from the biodistribution data for each organ with the standard quantitation platform included in Organ Level Internal Dose Assessment software (OLINDA, Vanderbilt University).

[2] = target: T1, Human-recombinant MMP-2 protein (Homo sapiens, UniProt P08253); assay: Cleavage assay; assay type: biochemical; settings: activated MMP-2 1–5 nM, 370 kBq probe, 37°C, 2 hr, pH 7.5 assay buffer, RP-HPLC, Fig. 3b
T1 construct: purchased R & D Systems, Inc. 902-MP-010
T1 sequence (P08253 110-660): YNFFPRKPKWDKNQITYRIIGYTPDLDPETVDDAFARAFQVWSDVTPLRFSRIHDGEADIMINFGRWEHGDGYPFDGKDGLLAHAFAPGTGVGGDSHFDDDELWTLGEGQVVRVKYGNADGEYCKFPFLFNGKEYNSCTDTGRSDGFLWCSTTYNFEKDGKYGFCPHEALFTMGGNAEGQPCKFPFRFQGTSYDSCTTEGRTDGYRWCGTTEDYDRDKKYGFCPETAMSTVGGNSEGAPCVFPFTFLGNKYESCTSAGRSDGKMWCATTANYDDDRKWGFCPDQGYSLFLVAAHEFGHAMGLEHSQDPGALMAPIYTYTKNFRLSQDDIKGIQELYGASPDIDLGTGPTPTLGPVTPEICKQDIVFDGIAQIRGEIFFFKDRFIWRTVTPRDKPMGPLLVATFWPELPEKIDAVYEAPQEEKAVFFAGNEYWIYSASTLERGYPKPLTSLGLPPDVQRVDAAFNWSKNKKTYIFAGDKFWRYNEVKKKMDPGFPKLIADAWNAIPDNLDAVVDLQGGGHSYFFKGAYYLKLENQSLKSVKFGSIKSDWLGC
Protocol: Human-recombinant MMP-2 protein (902-MP-010, R & D Systems, Inc., Minneapolis, MN USA) was activated with p-aminophenylmercuric acetate (1 mM) in assay buffer (50 mM Tris-HCl, 150 mM NaCl, 10 mM CaCl2, 5 µM ZnCl2, 0.02% Brij 35, pH 7.5). MDAP1000, MDAP3000, and MDAP5000 (370 kBq) were incubated at 37°C for 2 hr with activated MMP-2 (1–5 nM) and a MMP inhibitor (0 or 100 µM, GM6001, Merck KGaA, Darmstadt, Germany). The reaction was quenched by addition of methanol, and the percentage of cleaved peptide was estimated by RP-HPLC.

[3] = tested on: HT1080 tumor bearing mice; design: species or system mouse (Balb/c nu-nu); settings: mouse, in vivo, iv; for Radioactivity biodistribution, Blood / Radioactivity biodistribution, Heart / Radioactivity biodistribution, Intestine / Radioactivity biodistribution, Kidneys / Radioactivity biodistribution, Liver / Radioactivity biodistribution, Lung / Radioactivity biodistribution, Muscle / Radioactivity biodistribution, Pancreas / Radioactivity biodistribution, Spleen / Radioactivity biodistribution, Stomach / Radioactivity biodistribution, Tumor / T/B (tumor to blood ratio): 37 kBq
Protocol: Female Balb/c nu-nu mice (5 weeks old, Japan SLC, Inc., Shizuoka, Japan) were housed under a 12-h light/12-h dark cycle and given free access to food and water. HT1080 cells (5×10^6 cells/100 μl PBS (-)/mouse) were subcutaneously inoculated into the right hind leg of Balb/c nu-nu mice. Animals were used for experiments two weeks after inoculation when the mean tumor size was 5.7±2.2 mm along the major axis. […]3000 and […] (37 kBq, 100 μl in PBS including 3% bovine serum albumin and 0.1% Tween 80) were injected intravenously into the tail vein of tumor bearing mice. The mice were sacrificed at various post-injection time points (n = 3 for each time point), and the organs of interest including the tumor tissues were collected for determination of the weights. The radioactivity of each sample was measured with a NaI well-type scintillation counter. From fitting to the two phase decay curves for blood radioactivity data analyzed by GraphPad Prism 6 (GraphPad Software, San Diego, CA), whole body pharmacokinetic parameters such as blood half-lives, distribution volume, mean residence time and total clearance were calculated for each of the probes and the values compared. Simple pharmacokinetic analysis using a single tissue compartment model was applied to the biodistribution data to calculate rate constants (K1 and k2) for radioactivity transfer from blood to tumor and clearance from tumor to blood by PMOD version 3.2. In addition, MDAP3000 (7.4 MBq in 200 μl) was injected intravenously into the tail vein of tumor bearing mice for metabolite analysis in tumors excised 3, 6, and 24 hr post injection (n = 2 each). Tumor homogenates were prepared on ice and insoluble material was removed by centrifugation after methanol treatment. The resulting supernatant was analyzed by RP-HPLC.

Q: Which results are given for “Palmitoyl-Dap(p-SCN-Bn-DTPA-^111In)-10-Adc-Gly-Pro-Leu-Gly-Val-Arg-Gly-Lys(ivDde)-PEG3000 [MDAP3000]”?
A: Effective dose [1]: 5.08×10^−2 mSv/MBq; Cleavage by MMP-2 [2]: concentration-dependent manner; Blood clearance (in words) [3]: rapid blood clearance; Tumor accumulation (in words) [3]: high tumor accumulation; Radioactivity biodistribution, Blood ([3]; 0.25 h): 44.98±2.53 % injected dose per gram; Radioactivity biodistribution, Heart ([3]; 0.25 h): 9.26±0.86 % injected dose per gram; Radioactivity biodistribution, Intestine ([3]; 0.25 h): 3.59±0.24 % injected dose per gram; Radioactivity biodistribution, Kidneys ([3]; 0.25 h): 11.85±0.84 % injected dose per gram; Radioactivity biodistribution, Liver ([3]; 0.25 h): 18.83±1.38 % injected dose per gram; Radioactivity biodistribution, Lung ([3]; 0.25 h): 20.44±4.77 % injected dose per gram; Radioactivity biodistribution, Muscle ([3]; 0.25 h): 1.72±0.76 % injected dose per gram; Radioactivity biodistribution, Pancreas ([3]; 0.25 h): 3.91±0.33 % injected dose per gram; Radioactivity biodistribution, Spleen ([3]; 0.25 h): 6.53±0.34 % injected dose per gram; Radioactivity biodistribution, Stomach ([3]; 0.25 h): 0.48±0.04 % injected dose per organ; Radioactivity biodistribution, Tumor ([3]; 0.25 h): 3.60±0.17 % injected dose per gram; T/B (tumor to blood ratio) ([3]; 0.25 h): 0.08±0.01; Radioactivity biodistribution, Blood ([3]; 1 h): 30.48±1.67 % injected dose per gram; Radioactivity biodistribution, Heart ([3]; 1 h): 8.20±0.74 % injected dose per gram; Radioactivity biodistribution, Intestine ([3]; 1 h): 5.85±0.11 % injected dose per gram; Radioactivity biodistribution, Kidneys ([3]; 1 h): 10.60±0.38 % injected dose per gram; Radioactivity biodistribution, Liver ([3]; 1 h): 18.45±0.81 % injected dose per gram; Radioactivity biodistribution, Lung ([3]; 1 h): 15.92±0.58 % injected dose per gram; Radioactivity biodistribution, Muscle ([3]; 1 h): 1.27±0.20 % injected dose per gram; Radioactivity biodistribution, Pancreas ([3]; 1 h): 4.35±0.74 % injected dose per gram; Radioactivity biodistribution, Spleen ([3]; 1 h): 5.65±0.98 % injected dose per gram; Radioactivity biodistribution, Stomach ([3]; 1 h): 0.69±0.21 % injected dose per organ; Radioactivity biodistribution, Tumor ([3]; 1 h): 5.49±0.53 % injected dose per gram; T/B (tumor to blood ratio) ([3]; 1 h): 0.18±0.03; Radioactivity biodistribution, Blood ([3]; 3 h): 15.33±0.81 % injected dose per gram; Radioactivity biodistribution, Heart ([3]; 3 h): 6.70±0.59 % injected dose per gram; Radioactivity biodistribution, Intestine ([3]; 3 h): 13.13±1.73 % injected dose per gram; Radioactivity biodistribution, Kidneys ([3]; 3 h): 11.89±0.76 % injected dose per gram; Radioactivity biodistribution, Liver ([3]; 3 h): 22.83±3.72 % injected dose per gram; Radioactivity biodistribution, Lung ([3]; 3 h): 9.72±1.02 % injected dose per gram; Radioactivity biodistribution, Muscle ([3]; 3 h): 1.49±0.15 % injected dose per gram; Radioactivity biodistribution, Pancreas ([3]; 3 h): 5.25±0.57 % injected dose per gram; Radioactivity biodistribution, Spleen ([3]; 3 h): 5.41±0.64 % injected dose per gram; Radioactivity biodistribution, Stomach ([3]; 3 h): 1.17±0.82 % injected dose per organ; Radioactivity biodistribution, Tumor ([3]; 3 h): 5.49±0.36 % injected dose per gram; T/B (tumor to blood ratio) ([3]; 3 h): 0.36±0.04; Radioactivity biodistribution, Blood ([3]; 6 h): 8.33±0.58 % injected dose per gram; Radioactivity biodistribution, Heart ([3]; 6 h): 5.64±0.79 % injected dose per gram; Radioactivity biodistribution, Intestine ([3]; 6 h): 14.08±2.39 % injected dose per gram; Radioactivity biodistribution, Kidneys ([3]; 6 h): 11.40±1.18 % injected dose per gram; Radioactivity biodistribution, Liver ([3]; 6 h): 17.61±2.53 % injected dose per gram; Radioactivity biodistribution, Lung ([3]; 6 h): 5.56±0.75 % injected dose per gram; Radioactivity biodistribution, Muscle ([3]; 6 h): 1.43±0.28 % injected dose per gram; Radioactivity biodistribution, Pancreas ([3]; 6 h): 4.97±1.31 % injected dose per gram; Radioactivity biodistribution, Spleen ([3]; 6 h): 4.94±1.51 % injected dose per gram; Radioactivity biodistribution, Stomach ([3]; 6 h): 0.97±0.46 % injected dose per organ; Radioactivity biodistribution, Tumor ([3]; 6 h): 7.31±1.12 % injected dose per gram; T/B (tumor to blood ratio) ([3]; 6 h): 0.88±0.14; Radioactivity biodistribution, Blood ([3]; 24 h): 1.61±0.27 % injected dose per gram; Radioactivity biodistribution, Heart ([3]; 24 h): 3.78±0.39 % injected dose per gram; Radioactivity biodistribution, Intestine ([3]; 24 h): 3.70±1.06 % injected dose per gram; Radioactivity biodistribution, Kidneys ([3]; 24 h): 10.81±2.35 % injected dose per gram; Radioactivity biodistribution, Liver ([3]; 24 h): 10.51±0.89 % injected dose per gram; Radioactivity biodistribution, Lung ([3]; 24 h): 2.50±0.44 % injected dose per gram; Radioactivity biodistribution, Muscle ([3]; 24 h): 1.02±0.16 % injected dose per gram; Radioactivity biodistribution, Pancreas ([3]; 24 h): 3.92±0.68 % injected dose per gram; Radioactivity biodistribution, Spleen ([3]; 24 h): 3.92±0.24 % injected dose per gram; Radioactivity biodistribution, Stomach ([3]; 24 h): 0.54±0.07 % injected dose per organ; Radioactivity biodistribution, Tumor ([3]; 24 h): 4.25±0.79 % injected dose per gram; T/B (tumor to blood ratio) ([3]; 24 h): 2.74±0.89
